The text below walks through data of paper PMC7822876, “Structural basis of ribosomal RNA transcription regulation” (Nature Communications, 2020).

Experiment [1] deals with ΔσAL RNAP (wild-type core RNAP with σ^70 lacking the acidic loop) (E. coli) (UniProt P0A7Z4).
Experiment [2] has as its target Δσ1.1-RNAP (wild-type core RNAP with σ^70 lacking region 1.1) (E. coli) (UniProt P0A7Z4).
In experiment [3] the target is β′D256A RNAP (core RNAP with β′ D256A and wild-type σ^70) (E. coli) (UniProt P0A7Z4).
Experiment [4] deals with wild-type RNAP (core RNAP with wild-type σ^70, for in vitro transcription) (E. coli) (UniProt P0A7Z4).
The target in a further experiment is T1, RNA polymerase β subunit (E. coli, UniProt P0A8V2 1-1342).
T1 construct: RNA polymerase β subunit, E. coli; As it stands in the holoenzyme m1; also called βlobe/Si1; βgate loop (βGL)
In words: cryo-EM structure; RP-DksA/ppGpp: RNAP (20 μM) preincubated with DksA (100 μM) and ppGpp (2 mM) 5 min at 37 °C in 10 mM HEPES pH 8.0, 50 mM NaCl, 0.1 mM EDTA, 5 mM DTT, 5 mM MgCl2, then rrnBP1 DNA (40 μM) 5 min at 37 °C; 8 mM CHAPSO; two classes, RP1-DksA/ppGpp (3.62 Å) and RP2-DksA/ppGpp (3.58 Å). The conditions noted are these: both partners purified.

The target in experiment [5] is T2, RNA polymerase β' subunit (E. coli, UniProt P0A8T7 1-1407).
T2 construct: RNA polymerase β' subunit, E. coli; As it stands in the holoenzyme m1; also called β’clamp; β’clamp-toe (β’CT)
The description is as above. The conditions noted are these: both partners purified.

B1: DksA (natural protein, E. coli)
chain: MQEGQNRKTSSLSILAIAGVEPYQEKPGEEYMNEAQLAHFRRILEAWRNQLRDEVDRTVTHMQDEAANFPDPVDRAAQEEEFSLELRNRDRERKLIKKIEKTLKKVEDEDFGYCESCGVEIGIRRLEARPTADLCIDCKTLAEIREKQMAG
notes: DksA used for cryo-EM, with ppGpp (2 mM) in the sample; also called global transcriptional regulator DksA
For the molecule B1, the K (d,app) of DksA from inhibition of in vitro transcription from rrnBP1 (DksA 10 nM to 10 μM), +ppGpp (100 μM) was 1150 nM in experiment [1], 1640 nM in experiment [3] and 860 nM in experiment [4]. The K (d,app) of DksA from inhibition of in vitro transcription from rrnBP1 (DksA 10 nM to 10 μM), −ppGpp was 3000 nM in experiment [1], greater than 10 µM in experiment [2], 4.54 µM in experiment [3] and 2200 nM in experiment [4]. Also, the binding result (with RNA polymerase β subunit; in experiment [5]) was “binds” throughout.

B2: DksA D137A (natural protein)
chain: MQEGQNRKTSSLSILAIAGVEPYQEKPGEEYMNEAQLAHFRRILEAWRNQLRDEVDRTVTHMQDEAANFPDPVDRAAQEEEFSLELRNRDRERKLIKKIEKTLKKVEDEDFGYCESCGVEIGIRRLEARPTADLCIACKTLAEIREKQMAG
In experiment [4], B2 returned a K (d,app) of DksA D137A from inhibition of in vitro transcription from rrnBP1 (DksA 10 nM to 10 μM), +ppGpp (100 μM) of 2440 nM and a K (d,app) of DksA D137A from inhibition of in vitro transcription from rrnBP1 (DksA 10 nM to 10 μM), −ppGpp of 3.9 µM.
